# From US9677045B2, “Microorganisms and methods for production of 4-hydroxybutyrate, 1,4-butanediol and related compounds” (priority 2012, dated 2017)
# Like-named read-outs stand apart in the source and are kept apart here. Marks after values point to notes of the source that are not given here.
# T1: L(+)-lactate dehydrogenase from A. eutrophus (R. eutropha ldhA) (Cupriavidus necator, UniProt Q07251)
# T1 sequence (Q07251 1-349): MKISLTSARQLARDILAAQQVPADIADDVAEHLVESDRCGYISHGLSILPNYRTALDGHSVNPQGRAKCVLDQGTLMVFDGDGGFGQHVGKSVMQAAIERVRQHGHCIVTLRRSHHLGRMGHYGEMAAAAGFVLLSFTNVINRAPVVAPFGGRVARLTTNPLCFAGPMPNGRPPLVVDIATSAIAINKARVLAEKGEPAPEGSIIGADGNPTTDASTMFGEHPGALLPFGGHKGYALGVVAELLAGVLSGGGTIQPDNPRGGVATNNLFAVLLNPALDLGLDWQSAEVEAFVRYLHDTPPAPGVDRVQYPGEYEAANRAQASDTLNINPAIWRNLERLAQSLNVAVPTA
# B1: GNM_720: car gene, carboxylic acid reductase from Nocardia iowensis (protein, listed as Nocardia iowensis)
# chain: MAVDSPDERLQRRIAQLFAEDEQVKAARPLEAVSAAVSAPGMRLAQIAATVMAGYADRPAAGQRAFELNTDDATGRTSLRLLPRFETITYRELWQRVGEVAAAWHHDPENPLRAGDFVALLGFTSIDYATLDLADIHLGAVTVPLQASAAVSQLIAILTETSPRLLASTPEHLDAAVECLLAGTTPERLVVFDYHPEDDDQRAAFESARRRLADAGSLVIVETLDAVRARGRDLPAAPLFVPDTDDDPLALLIYTSGSTGTPKGAMYTNRLAATMWQGNSMLQGNSQRVGINLNYMPMSHIAGRISLFGVLARGGTAYFAAKSDMSTLFEDIGLVRPTEIFFVPRVCDMVFQRYQSELDRRSVAGADLDTLDREVKADLRQNYLGGRFLVAVVGSAPLAAEMKTFMESVLDLPLHDGYGSTEAGASVLLDNQIQRPPVLDYKLVDVPELGYFRTDRPHPRGELLLKAETTIPGYYKRPEVTAEIFDEDGFYKTGDIVAELEHDRLVYVDRRNNVLKLSQGEFVTVAHLEAVFASSPLIRQIFIYGSSERSYLLAVIVPTDDALRGRDTATLKSALAESIQRIAKDANLQPYEIPRDFLIETEPFTIANGLLSGIAKLLRPNLKERYGAQLEQMYTDLATGQADELLALRREAADLPVLETVSRAAKAMLGVASADMRPDAHFTDLGGDSLSALSFSNLLHEIFGVEVPVGVVVSPANELRDLANYIEAERNSGAKRPTFTSVHGGGSEIRAADLTLDKFIDARTLAAADSIPHAPVPAQTVLLTGANGYLGRFLCLEWLERLDKTGGTLICVVRGSDAAAARKRLDSAFDSGDPGLLEHYQQLAARTLEVLAGDIGDPNLGLDDATWQRLAETVDLIVHPAALVNHVLPYTQLFGPNVVGTAEIVRLAITARRKPVTYLSTVGVADQVDPAEYQEDSDVREMSAVRVVRESYANGYGNSKWAGEVLLREAHDLCGLPVAVFRSDMILAHSRYAGQLNVQDVFTRLILSLVATGIAPYSFYRTDADGNRQRAHYDGLPADFTAAAITALGIQATEGFRTYDVLNPYDDGISLDEFVDWLVESGHPIQRITDYSDWFHRFETAIRALPEKQRQASVLPLLDAYRNPCPAVRGAILPAKEFQAAVQTAKIGPEQDIPHLSAPLIDKYVSDLELLQLL
# B2: cytochrome bo oxidase: E. coli cytochrome bo oxidase (cyo operon) (protein, UniProt P0ABJ1 25-315; P0ABI8 1-663; P0ABJ3 1-204; P0ABJ6 1-109, looked up)
# Cytochrome bo(3) ubiquinol … 1: CNSALLDPKGQIGLEQRSLILTAFGLMLIVVIPAILMAVGFAWKYRASNKDAKYSPNWSHSNKVEAVVWTVPILIIIFLAVLTWKTTHALEPSKPLAHDEKPITIEVVSMDWKWFFIYPEQGIATVNEIAFPANTPVYFKVTSNSVMNSFFIPRLGSQIYAMAGMQTRLHLIANEPGTYDGISASYSGPGFSGMKFKAIATPDRAAFDQWVAKAKQSPNTMSDMAAFEKLAAPSEYNQVEYFSNVKPDLFADVINKFMAHGKSMDMTQPEGEHSAHEGMEGMDMSHAESAH
# Cytochrome bo(3) ubiquinol … 2: MFGKLSLDAVPFHEPIVMVTIAGIILGGLALVGLITYFGKWTYLWKEWLTSVDHKRLGIMYIIVAIVMLLRGFADAIMMRSQQALASAGEAGFLPPHHYDQIFTAHGVIMIFFVAMPFVIGLMNLVVPLQIGARDVAFPFLNNLSFWFTVVGVILVNVSLGVGEFAQTGWLAYPPLSGIEYSPGVGVDYWIWSLQLSGIGTTLTGINFFVTILKMRAPGMTMFKMPVFTWASLCANVLIIASFPILTVTVALLTLDRYLGTHFFTNDMGGNMMMYINLIWAWGHPEVYILILPVFGVFSEIAATFSRKRLFGYTSLVWATVCITVLSFIVWLHHFFTMGAGANVNAFFGITTMIIAIPTGVKIFNWLFTMYQGRIVFHSAMLWTIGFIVTFSVGGMTGVLLAVPGADFVLHNSLFLIAHFHNVIIGGVVFGCFAGMTYWWPKAFGFKLNETWGKRAFWFWIIGFFVAFMPLYALGFMGMTRRLSQQIDPQFHTMLMIAASGAVLIALGILCLVIQMYVSIRDRDQNRDLTGDPWGGRTLEWATSSPPPFYNFAVVPHVHERDAFWEMKEKGEAYKKPDHYEEIHMPKNSGAGIVIAAFSTIFGFAMIWHIWWLAIVGFAGMIITWIVKSFDEDVDYYVPVAEIEKLENQHFDEITKAGLKNGN
# Cytochrome bo(3) ubiquinol … 3: MATDTLTHATAHAHEHGHHDAGGTKIFGFWIYLMSDCILFSILFATYAVLVNGTAGGPTGKDIFELPFVLVETFLLLFSSITYGMAAIAMYKNNKSQVISWLALTWLFGAGFIGMEIYEFHHLIVNGMGPDRSGFLSAFFALVGTHGLHVTSGLIWMAVLMVQIARRGLTSTNRTRIMCLSLFWHFLDVVWICVFTVVYLMGAM
# Cytochrome bo(3) ubiquinol … 4: MSHSTDHSGASHGSVKTYMTGFILSIILTVIPFWMVMTGAASPAVILGTILAMAVVQVLVHLVCFLHMNTKSDEGWNMTAFVFTVLIIAILVVGSIWIMWNLNYNMMMH
# B3: Cytochrome bo (protein, UniProt P0ABJ1 25-315; P0ABI8 1-663; P0ABJ3 1-204; P0ABJ6 1-109, looked up)
# Cytochrome bo(3) ubiquinol … 1: CNSALLDPKGQIGLEQRSLILTAFGLMLIVVIPAILMAVGFAWKYRASNKDAKYSPNWSHSNKVEAVVWTVPILIIIFLAVLTWKTTHALEPSKPLAHDEKPITIEVVSMDWKWFFIYPEQGIATVNEIAFPANTPVYFKVTSNSVMNSFFIPRLGSQIYAMAGMQTRLHLIANEPGTYDGISASYSGPGFSGMKFKAIATPDRAAFDQWVAKAKQSPNTMSDMAAFEKLAAPSEYNQVEYFSNVKPDLFADVINKFMAHGKSMDMTQPEGEHSAHEGMEGMDMSHAESAH
# Cytochrome bo(3) ubiquinol … 2: MFGKLSLDAVPFHEPIVMVTIAGIILGGLALVGLITYFGKWTYLWKEWLTSVDHKRLGIMYIIVAIVMLLRGFADAIMMRSQQALASAGEAGFLPPHHYDQIFTAHGVIMIFFVAMPFVIGLMNLVVPLQIGARDVAFPFLNNLSFWFTVVGVILVNVSLGVGEFAQTGWLAYPPLSGIEYSPGVGVDYWIWSLQLSGIGTTLTGINFFVTILKMRAPGMTMFKMPVFTWASLCANVLIIASFPILTVTVALLTLDRYLGTHFFTNDMGGNMMMYINLIWAWGHPEVYILILPVFGVFSEIAATFSRKRLFGYTSLVWATVCITVLSFIVWLHHFFTMGAGANVNAFFGITTMIIAIPTGVKIFNWLFTMYQGRIVFHSAMLWTIGFIVTFSVGGMTGVLLAVPGADFVLHNSLFLIAHFHNVIIGGVVFGCFAGMTYWWPKAFGFKLNETWGKRAFWFWIIGFFVAFMPLYALGFMGMTRRLSQQIDPQFHTMLMIAASGAVLIALGILCLVIQMYVSIRDRDQNRDLTGDPWGGRTLEWATSSPPPFYNFAVVPHVHERDAFWEMKEKGEAYKKPDHYEEIHMPKNSGAGIVIAAFSTIFGFAMIWHIWWLAIVGFAGMIITWIVKSFDEDVDYYVPVAEIEKLENQHFDEITKAGLKNGN
# Cytochrome bo(3) ubiquinol … 3: MATDTLTHATAHAHEHGHHDAGGTKIFGFWIYLMSDCILFSILFATYAVLVNGTAGGPTGKDIFELPFVLVETFLLLFSSITYGMAAIAMYKNNKSQVISWLALTWLFGAGFIGMEIYEFHHLIVNGMGPDRSGFLSAFFALVGTHGLHVTSGLIWMAVLMVQIARRGLTSTNRTRIMCLSLFWHFLDVVWICVFTVVYLMGAM
# Cytochrome bo(3) ubiquinol … 4: MSHSTDHSGASHGSVKTYMTGFILSIILTVIPFWMVMTGAASPAVILGTILAMAVVQVLVHLVCFLHMNTKSDEGWNMTAFVFTVLIIAILVVGSIWIMWNLNYNMMMH
# B4: NDH-2 (protein, UniProt P00393 2-434, looked up)
# Type II NADH:quinone …: TTPLKKIVIVGGGAGGLEMATQLGHKLGRKKKAKITLVDRNHSHLWKPLLHEVATGSLDEGVDALSYLAHARNHGFQFQLGSVIDIDREAKTITIAELRDEKGELLVPERKIAYDTLVMALGSTSNDFNTPGVKENCIFLDNPHQARRFHQEMLNLFLKYSANLGANGKVNIAIVGGGATGVELSAELHNAVKQLHSYGYKGLTNEALNVTLVEAGERILPALPPRISAAAHNELTKLGVRVLTQTMVTSADEGGLHTKDGEYIEADLMVWAAGIKAPDFLKDIGGLETNRINQLVVEPTLQTTRDPDIYAIGDCASCPRPEGGFVPPRAQAAHQMATCAMNNILAQMNGKPLKNYQYKDHGSLVSLSNFSTVGSLMGNLTRGSMMIEGRIARFVYISLYRMHQIALHGYFKTGLMMLVGSINRVIRPRLKLH
# Experiments:
# [1] = system: alcohol dehydrogenase from Brevibacterium sp KU; details: oxidation of alcohols; activity of 2-phenylethanol taken as 100%; cited from earlier work
# [2] = system: alcohol dehydrogenase from Brevibacterium sp KU 1309; details: reduction of carbonyl compounds; cited from earlier work
# [3] = target: T1, L(+)-lactate dehydrogenase from A. eutrophus (R. eutropha ldhA); details: compared with that on pyruvate; cited from earlier work
# [4] = cytoplasmic pH, typically 7.4; cited from earlier work
# [5] = system: cytochrome oxidases from E. coli; details: cited from earlier work; for Km: read-out: Km for O2
# [6] = system: 1,4-butanediol pathway
# Description: Ten mL micro-aerobic cultures were started by inoculating fresh minimal in vivo conversion medium (see below) containing the appropriate antibiotics with 1% of the first cultures.
# Microaerobic conditions were established by initially flushing capped anaerobic bottles with nitrogen for 5 minutes, then piercing the septum with an 18G needle following inoculation. The needle was kept in the bottle during growth to allow a small amount of air to enter the bottles. Protein expression was induced with 0.2 mM IPTG when the culture reached mid-log growth phase. This is considered: time=0 hr.
# [7] = system: NADH dehydrogenases and cytochrome oxidases; details: aerobic growth, from Noguchi et al., 2004, cited from earlier work
# [8] = host strain ECKh-432 with pZS*13S plasmid, culture supernatant, micro-aerobic
molecule,measurement,setting,value
CC(O)c1ccccc1 (centres unmarked) [1-Phenylethanol],Relative Activity,[1],46 0%
CC(C=O)c1ccccc1 (centres unmarked) [2-Phenylpropionaldehyde],Km,[2],864 µM
CCC(C)C(=O)C(=O)O (centres unmarked) [3-Methyl-2-oxovalerate],Activity (%) of L(+)-lactate dehydrogenase from A. eutrophus,[3],5.3%
CC(C)CC(=O)C(=O)O [4-Methyl-2-oxopentanoate],Activity (%) of L(+)-lactate dehydrogenase from A. eutrophus,[3],39.0%
C[C@@H](CO)c1ccccc1 [(R)-2-Phenylpropanol],Relative Activity,[1],63 0%
CCO [Ethanol],Relative Activity,[1],76 0%
"O=C1CCCO1 [GBL, γ-butyrolactone]",lactone/hydroxyacid equilibrium,[4],hydrolysis of the GBL lactone is favored
O=CC(=O)O [Glyoxylate],Activity (%) of L(+)-lactate dehydrogenase from A. eutrophus,[3],8.7%
O=CCc1ccccc1 [Phenylacetaldehyde],Km,[2],261 µM
"CCCCCCCCCCCCO [Sample 1-Dodecanol, 1-Dodecanol]",Relative Activity,[1],68 0%
"CC(C)O [Sample 2-Propanol, 2-Propanol]",Relative Activity,[1],54 0%
cytochrome bd oxidase: E. coli cytochrome bd oxidase (cyd operon),Km,[5],0.01 µM
B1,BDO formation in ECKh-432,[6],required for BDO formation
same,ETOHEnz (ethanol),[6]; [8],>LLOQ
same,GBL (gamma-butyrolactone),[6]; [8],0.07 mM
same,LA (lactate),[6]; [8],0.10 mM
same,SA (succinate),[6]; [8],0.00 mM
B2,Km,[5],~1 µM
B3,Vmax,"[5]; from Bekker et al., 2009",225^c mol O/mol cytochrome bd/s
B4,Concentrations of NADH dehydrogenases and cytochrome oxidase,[7]; Limited glucose (early stationary),0.70 ± 0.03 μmol/s/mg of protein
same,Concentrations of NADH dehydrogenases and cytochrome oxidase,[7]; Standard glucose (early stationary: 8 h),0.88 ± 0.01 μmol/s/mg of protein
same,Concentrations of NADH dehydrogenases and cytochrome oxidase,[7]; Standard glucose (exponential: 3 h),1.11 ± 0.06 μmol/s/mg of protein
same,Concentrations of NADH dehydrogenases and cytochrome oxidase,[7]; Standard glucose (exponential: 5 h),0.86 ± 0.03 μmol/s/mg of protein
